Tests used:
CD3 on Jurkat cells [1] = target: CD3 on Jurkat cells (human); test: cell ELISA
CD3 on Jurkat cells [2] = target: CD3 on Jurkat cells (human); test: cell ELISA; -uPa
CD3 on Jurkat cells [3] = target: CD3 on Jurkat cells (human); test: cell ELISA; +uPa

CD3 on Jurkat cells (human), sequence (chain, as listed by the source, chain 1 of 4): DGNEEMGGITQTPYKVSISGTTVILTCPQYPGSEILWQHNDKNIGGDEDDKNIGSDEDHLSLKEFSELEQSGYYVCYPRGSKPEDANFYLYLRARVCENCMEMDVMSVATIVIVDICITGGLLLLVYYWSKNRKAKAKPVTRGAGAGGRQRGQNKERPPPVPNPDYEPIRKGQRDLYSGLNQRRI
CD3 on Jurkat cells (human), sequence (chain, as listed by the source, chain 2 of 4): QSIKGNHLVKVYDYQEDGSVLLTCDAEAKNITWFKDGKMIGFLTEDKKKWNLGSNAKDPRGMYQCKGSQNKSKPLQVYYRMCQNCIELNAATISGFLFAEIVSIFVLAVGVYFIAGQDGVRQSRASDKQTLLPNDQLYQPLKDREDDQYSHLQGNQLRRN
CD3 on Jurkat cells (human), sequence (chain, as listed by the source, chain 3 of 4): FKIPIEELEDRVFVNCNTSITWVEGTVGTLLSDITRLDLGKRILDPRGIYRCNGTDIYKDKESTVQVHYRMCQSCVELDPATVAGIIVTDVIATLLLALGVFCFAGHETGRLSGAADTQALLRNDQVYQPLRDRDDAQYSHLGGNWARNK
CD3 on Jurkat cells (human), sequence (chain, as listed by the source, chain 4 of 4): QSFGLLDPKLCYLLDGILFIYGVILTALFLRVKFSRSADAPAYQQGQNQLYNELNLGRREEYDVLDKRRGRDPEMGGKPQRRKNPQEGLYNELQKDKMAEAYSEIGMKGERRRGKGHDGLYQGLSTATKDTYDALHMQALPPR

Binder | EC50 (CD3 on Jurkat cells [1]) [nM] | other results
31929 (Half-masked CD3 × Her2 Fab × scFv Fc, HA PD-1 attached to HC) (bispecific antibody) heavy: not shown light: DIQMTQSPSSLSASVGDRVTMTCSASSSVSYMNWYQQKPGKAPKRWIYDSSKLASGVPARFSGSGSGTDYTLTISSLQPEDFATYYCQQWSRNPPTFGGGTKLQITRTVAAPSVFIFPPSDEQLKSGTASVVCLLNNFYPREAKVQWKVDNALQSGNSQESVTEQDSKDSTYSLSSTLTLSKADYEKHKVYACEVTHQGLSSPVTKSFNRGEC not shown | 4.2 | 
30421 (CD3 × Her2 Fab × scFv Fc without mask) (bispecific antibody) heavy: not shown light: DIQMTQSPSSLSASVGDRVTMTCSASSSVSYMNWYQQKPGKAPKRWIYDSSKLASGVPARFSGSGSGTDYTLTISSLQPEDFATYYCQQWSRNPPTFGGGTKLQITRTVAAPSVFIFPPSDEQLKSGTASVVCLLNNFYPREAKVQWKVDNALQSGNSQESVTEQDSKDSTYSLSSTLTLSKADYEKHKVYACEVTHQGLSSPVTKSFNRGEC not shown | 1.22 | 
30436 (WT PD-1: HA PD-L1 masked CD3 × Her2 Fab × scFv Fc, PD-1 cleavable), not treated with uPa (bispecific antibody) heavy: not shown light: AFTVTVPKDLYVVEYGSNMTIECKFPVEKQLDLAALQVFWMMEDKNIIQFVHGEEDLKVQHSSYRQRARLLKDQLSLGNAALQITDVKLQDAGVYTCLIAYKGADYKRITVKVNAEAAAKEAAAKDIQMTQSPSSLSASVGDRVTMTCSASSSVSYMNWYQQKPGKAPKRWIYDSSKLASGVPARFSGSGSGTDYTLTISSLQPEDFATYYCQQWSRNPPTFGGGTKLQITRTVAAPSVFIFPPSDEQLKSGTASVVCLLNNFYPREAKVQWKVDNALQSGNSQESVTEQDSKDSTYSLSSTLTLSKADYEKHKVYACEVTHQGLSSPVTKSFNRGEC not shown |  | EC50 (CD3 on Jurkat cells [2]): 178 nM
30436 treated with uPa (bispecific antibody) heavy: not shown light: AFTVTVPKDLYVVEYGSNMTIECKFPVEKQLDLAALQVFWMMEDKNIIQFVHGEEDLKVQHSSYRQRARLLKDQLSLGNAALQITDVKLQDAGVYTCLIAYKGADYKRITVKVNAEAAAKEAAAKDIQMTQSPSSLSASVGDRVTMTCSASSSVSYMNWYQQKPGKAPKRWIYDSSKLASGVPARFSGSGSGTDYTLTISSLQPEDFATYYCQQWSRNPPTFGGGTKLQITRTVAAPSVFIFPPSDEQLKSGTASVVCLLNNFYPREAKVQWKVDNALQSGNSQESVTEQDSKDSTYSLSSTLTLSKADYEKHKVYACEVTHQGLSSPVTKSFNRGEC not shown |  | EC50 (CD3 on Jurkat cells [3]): 6.22 nM
31931 (Half-masked CD3 × Her2 Fab × scFv Fc, HA PD-L1 attached to LC) (bispecific antibody) heavy: not shown light: AFTVTVPKDLYVVEYGSNMTIECKFPVEKQLDLAALQVFWMMEDKNIIQFVHGEEDLKVQHSSYRQRARLLKDQLSLGNAALQITDVKLQDAGVYTCLIAYKGADYKRITVKVNAEAAAKEAAAKDIQMTQSPSSLSASVGDRVTMTCSASSSVSYMNWYQQKPGKAPKRWIYDSSKLASGVPARFSGSGSGTDYTLTISSLQPEDFATYYCQQWSRNPPTFGGGTKLQITRTVAAPSVFIFPPSDEQLKSGTASVVCLLNNFYPREAKVQWKVDNALQSGNSQESVTEQDSKDSTYSLSSTLTLSKADYEKHKVYACEVTHQGLSSPVTKSFNRGEC not shown | 5.33 | 
